Where no end group is shown, it is not given here.
Target: T1, recombinant Psb28 (from pIVEXPsb28His) (T. elongatus, UniProt Q8DLJ8 2-116)
T1 sequence: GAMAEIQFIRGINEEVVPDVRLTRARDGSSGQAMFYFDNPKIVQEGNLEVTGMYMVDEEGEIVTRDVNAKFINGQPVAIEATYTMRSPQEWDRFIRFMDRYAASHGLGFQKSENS
Assay: NMR titration

Question: Which results are given for Ac-SGIDPELSPEQVEWGFYQKV [carboxy-terminal peptide from residues 480-499 of CP47]?
Answer: Kd: 53.92 ± 0.41 µM; koff: 10.1 ± 0.16 s⁻¹

From publication doi:10.1101/2020.09.14.294884 (bioRxiv, 2020)
